# According to paper PMC8287922:
# Changes are numbered by the printed parent chain. Read-outs that look alike come from different tables or passages of the source.
# B1: HD (mutated PD) (dsDNA)
# DNA 1: TCGACGCAGATCGTCCGCTAATTCCAACGACCTCGA
# DNA 2: TCGAGGTCGTTGGAATTAGCGGACGATCTGCGTCGA
# B2: H.I-2 (dsDNA)
# DNA 1: TCGACCAGATCGTCCGCTAATTACCAACGACCTCGA
# DNA 2: TCGAGGTCGTTGGTAATTAGCGGACGATCTGGTCGA
# B3: H.I2 (dsDNA)
# DNA 1: TCGACTCGTCCGCTAATTGATTATCCAACGACCTCGA
# DNA 2: TCGAGGTCGTTGGATAATCAATTAGCGGACGAGTCGA
# B4: PD (mutated HD) (dsDNA)
# DNA 1: TCGACGCAGATCCGTGACGCCAGTTCCGACCTCGA
# DNA 2: TCGAGGTCGGAACTGGCGTCACGGATCTGCGTCGA
# B5: Composite HP.E0 (dsDNA)
# DNA 1: B4 DNA 1 with G19T, C20A, C21A, A22T
# DNA 2: B4 DNA 2 with T14A, G15T, G16T, C17A
# What was measured:
# Assay in all cases: EMSA
# Pax7 HD = Pax7 HD (mouse (Mus musculus), UniProt P47239 215-273)
# Pax7 PD-HD [1] = molecular target: T1, Pax7 PD-HD (mouse (Mus musculus), UniProt P47239 35-273)
# Pax7 PD-HD homodimer = Pax7 PD-HD homodimer (mouse (Mus musculus), UniProt P47239 35-273)
# Pax7 PD-HD [2] = molecular target: T1, Pax7 PD-HD; remark: listed apart in the source
# Pax7 PD-HD [3] = molecular target: T1, Pax7 PD-HD; remark: listed apart in the source
# Pax7 PD = Pax7 PD (mouse (Mus musculus), UniProt P47239 35-158)
# Pax7 PD-L = Pax7 PD-L (mouse (Mus musculus), UniProt P47239 35-215)
# Pax7 PD-HD [4] = molecular target: T1, Pax7 PD-HD; remark: listed apart in the source
# Sequence of Pax7 HD (P47239 215-273): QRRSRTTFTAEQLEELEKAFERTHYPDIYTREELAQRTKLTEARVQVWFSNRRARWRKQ
# T1 sequence (P47239 35-273): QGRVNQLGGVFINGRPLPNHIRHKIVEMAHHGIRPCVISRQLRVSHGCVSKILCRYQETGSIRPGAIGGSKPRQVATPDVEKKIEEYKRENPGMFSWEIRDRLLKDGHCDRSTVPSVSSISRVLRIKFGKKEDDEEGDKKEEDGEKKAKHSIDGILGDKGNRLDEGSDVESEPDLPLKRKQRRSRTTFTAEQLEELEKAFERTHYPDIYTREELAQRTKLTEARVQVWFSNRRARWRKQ
# Sequence of Pax7 PD (P47239 35-158): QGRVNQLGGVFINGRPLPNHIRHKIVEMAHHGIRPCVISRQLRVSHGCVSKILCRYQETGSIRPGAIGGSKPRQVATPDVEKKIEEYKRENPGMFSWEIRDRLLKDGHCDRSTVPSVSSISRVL
# Sequence of Pax7 PD-L (P47239 35-215): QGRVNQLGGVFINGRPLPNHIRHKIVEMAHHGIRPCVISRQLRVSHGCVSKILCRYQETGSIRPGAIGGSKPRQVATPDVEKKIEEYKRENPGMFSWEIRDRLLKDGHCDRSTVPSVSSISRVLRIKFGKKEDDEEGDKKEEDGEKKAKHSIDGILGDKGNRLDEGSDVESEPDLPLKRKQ
# Sequence of Pax7 PD-HD homodimer (P47239 35-273): as the sequence (P47239 35-273) above
binder,measurement,setting,value
B1,binding result,Pax7 HD,no binding
B2,binding result,Pax7 PD-HD [1],binds
same,binding result,Pax7 HD,no binding
B3,binding result,Pax7 HD,binds
same,binding result,Pax7 PD-HD homodimer,binds
same,binding result,Pax7 PD-HD [2],binds
B4,binding result,Pax7 PD-HD [3],binds
same,binding result,Pax7 PD,binds
same,binding result,Pax7 PD-L,binds
B5,binding result,Pax7 PD,binds
same,binding result,Pax7 PD-HD [4],binds
